The source of these data is patent publication US9206239B2, “Treatment of cancers with immunostimulatory HIV Tat derivative polypeptides” (PIN Pharma, Inc., priority 2009, dated 2015).

For assay [1], the system named is IFN-γ production by spleen cells. Put plainly: ELISA analysis of IFN-γ production by immune spleen cells of 4T1 tumor-bearing mice. In kind it is in vivo, BALB/c mice. On the procedure: FIG. 7 depicts INF-γ production from spleen cells of mice bearing 4T1 breast tumors. BALB/c mice were injected SC with 1×10^4 4T1 cells. Control animals received weekly injections of PBS, while the Nani-P2 treatment comprised once weekly SC injections (40 ng) initiated at day 0 and continued for 4 weeks. On day 33, when control mice were at endstage, the mice were sacrificed, the spleens harvested and frozen as single cell suspensions until time of assay. Spleen cells (2×10^5) and 1×10^4 mitomycin C-treated (50 μg/ml for 30 min) 4T1 stimulator cells (S) were plated into 96-well plates. After 72 hr of stimulation, the supernatants were collected and IFN-γ concentration was determined using a commercial IFN-γ ELISA kit. […] 1: no restimulation; 2: IL-4 (50 ng/ml)/GM-CSF ([…]); 3: stimulator cells/IL-4/GM-CSF; 4: stimulator cells only.
Splenocyte secretion of IFN-γ was assessed by an OPTEIA® ELISA kit (BD Biosciences). Briefly, spleen cells (1×10^5/well) from 4T1 tumor-bearing mice were cultured with or without 5×10^3/well mitomycin C (50 μg/ml)-treated 4T1 cells (used to provide tumor antigens) in DMEM in at a 20:1 E:T (effector:tumor) ratio with […] (50 ng/mL) and GM-CSF (100 ng/ml) in 96-well plates. Supernatants were collected after 72 hr and kept frozen at −80° C. until analysis without loss of activity. IFN-γ was measured in cell-free supernatants of duplicate wells by ELISA according to the manufacturer's instructions. Tumor-specific IFN-γ production was calculated by subtracting the background values measured in supernatants of spleen cells cultured with medium alone and optical density (OD) values were converted to pg/ml amounts of IFN-γ using a recombinant IFN-γ standard curve. Stimulation index (SI) was calculated as the ratio of IFN-γ in stimulated versus control cultures.
To determine whether cytotoxic T-lymphocytes play a role in tumor rejection induced by Nani-P2 therapy, an IFN-γ ELISA assay (FIG. 7) was performed to compare spleen cells of 4T1 tumor-bearing mice treated either without (Control) or with Nani-P2 (FIG. 7). […]

A further assay relates to 4T1 lung metastases. The assay can be described thus: Detection of 4T1 lung metastases. In kind it is in vivo, BALB/c mice. The note with it: treated IV, established 4T1 tumors; p<0.01 vs PBS. The source says: Lungs were examined for 4T1 metastases as previously described (Pulaski B. et al. Cancer Res. 60:2710-2715, 2000). Primary 4T1 tumors that have been established for 2-3 weeks in BALB/c mice metastasize to the lungs in a very large majority of animals. Briefly, mice were sacrificed according to IACUC guidelines established at the start of the trials, the lungs removed, and tumor nodules on the surface of the lungs were enumerated with the naked eye by two independent investigators blinded to the treatment protocols.
To further investigate the efficacy of Nani-P2 against established and metastatic breast cancer, 4T1 cells were injected SC in the abdominal mammary gland of mice and treatment was delayed until such time that the tumors had metastasized to the lungs and averaged 3.5 mm in size (FIG. 8A, day 13), corresponding to a 2.4 cm or stage T2 human breast tumor. Mice were followed for tumor growth (FIG. 8A) and lung metastases (FIG. 8B). […] This corresponded to a less aggressive appearance of primary tumor, as well as lung metastases that were on average much smaller in size (FIG. 8B).

A further assay deals with SM1 breast cancer cells. Put plainly: SM1 breast carcinoma model. In kind it is in vivo, mice. On the procedure: 4T1 cells, a 6-thioguanine-resistant cell line derived from a BALB/c spontaneous mammary carcinoma was obtained from ATCC; TS/A, a murine adenocarcinoma cell line was provided by Dr. Sandra Demaria (Demaria S. et al. Clin Cancer Res. 11:728-34, 2005); and SM1, the BALB/C-derived mammary carcinoma was kindly was provided by Dr. James Allison, University of California, Berkeley. All tumor cell lines were cultured in DMEM, supplemented with 2 mM L-glutamine, 10 mM HEPES, 150 units/ml penicillin/streptomycin, 10% heat-inactivated FCS (Invitrogen), 50 μM 2-mercaptoethanol (Sigma), and 50 mg/L gentamicin (Lanza).
BALB/c were injected (SC) with 1×10^4 4T1, 1×10^5 TS/A or 2×10^5 SM1 cells, respectively, in the left mammary pad on day 0. Immunotherapy was performed by directly injecting a Tat derivative into the right flank at 0, 7, 12, and 17 days after establishment of tumors. The control group received PBS injection. […] Tumor burden (tumor volume) was measured and recorded three times weekly. Animals were sacrificed when tumors reached a volume of 15 mm in diameter and the tumors harvested and weighed.

B1: Nani-P2: HIV Tat derivative polypeptide, SEQ ID NO: 3; derivatized Tat amino terminus from an African Green Monkey variant SIV (protein)
chain: MDPKGEEDQDVSHQDLIKQYRKPRTACNNCYCKKCCFHCYACFLRKGLGITYHAFRTRRKKIASADRIPVPQQSISIRGRDSQTTQESQKKVEEQAKANLRISRKNLGDETRGPVGAGN
modifications: Nani-P2 modified HIV Tat sequence
notes: derivatized Tat amino terminus from an African Green Monkey variant SIV
Turning to B1, the “baseline levels of INF-γ secreted by splenocytes vs PBS-treated control mice” value in assay [1] (40 ng SC weekly for 4 weeks, no restimulation) is 8 fold. Also, the “INF-γ production in cultures of spleen cells vs control” value in assay [1] (all conditions of assay) is recorded as “significantly (p<0.01**) higher”. The “stimulation index vs control” value in assay [1] (tumor stimulators + IL4 + GM-CSF added at initiation of culture) was determined as 53. Besides, in the assay with 4T1 lung metastases, the “average number of grossly visible tumor nodules in the lungs” value is “seven”. Besides, in the assay with SM1 breast cancer cells (40 ng SC days 0, 7, 14, 21, p<0.01), the “difference in primary tumor growth between control and treated animals” value is reported as “highly statistically significant”. For the same molecule, the “animals remaining in remission” value in the assay on SM1 breast cancer cells (28 days following implant, one week after termination of the regimen) was 40%. In the assay on SM1 breast cancer cells (for 16 days, 40 ng SC days 0, 7, 14, 21), the “animals in which tumor growth was suppressed” value was 100%.
